# T1: Human IL-12 (human, UniProt P29460 23-328; P29459 23-219)
# T1 construct: also called human Interleukin-12
# T1 sequence (looked up) 1: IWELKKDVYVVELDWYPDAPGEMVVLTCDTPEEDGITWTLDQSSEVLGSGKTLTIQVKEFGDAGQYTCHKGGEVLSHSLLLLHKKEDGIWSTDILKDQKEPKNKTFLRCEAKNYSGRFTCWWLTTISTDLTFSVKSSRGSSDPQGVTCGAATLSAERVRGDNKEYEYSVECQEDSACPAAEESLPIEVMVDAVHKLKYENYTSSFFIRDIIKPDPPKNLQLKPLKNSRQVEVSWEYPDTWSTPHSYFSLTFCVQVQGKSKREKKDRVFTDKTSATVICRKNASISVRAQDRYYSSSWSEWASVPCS
# T1 sequence (looked up) 2: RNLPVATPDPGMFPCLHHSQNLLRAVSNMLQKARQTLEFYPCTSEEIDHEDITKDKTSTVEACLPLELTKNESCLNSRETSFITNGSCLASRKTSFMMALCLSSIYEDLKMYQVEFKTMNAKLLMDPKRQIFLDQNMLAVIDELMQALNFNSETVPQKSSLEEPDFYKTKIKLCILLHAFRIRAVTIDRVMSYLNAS
# Key:
# [1] = molecular target: T2, Human IL-12 receptor (human IL-12Rb1 and IL-12Rb2) (human, UniProt P42701 24-662; Q99665 24-862); experiment: cell-based or functional assay
# [2] = molecular target: T2, Human IL-12 receptor (human IL-12Rb1 …); experiment: cell-based or functional assay; remark: listed apart in the source
# [3] = molecular target: T2, Human IL-12 receptor (human IL-12Rb1 …); experiment: cell-based or functional assay; remark: listed apart in the source
# Human IL-12 = molecular target: T1, Human IL-12; experiment: SPR, BIACORE T200, 37 degrees C, pH 7.4; antibody captured by anti-human Fc antibody, human IL-12 injected at 5 and 20 nM; 1:1 binding model
# Protocol: The affinity of anti-IL12 antibodies binding to human IL-12 at pH 7.4 was determined at 37 degrees C. using BIACORE® T200 instrument (GE Healthcare). […] (GE Healthcare) was immobilized onto all flow cells of a CM4 sensor chip using amine coupling kit (GE Healthcare). All antibodies and analytes were prepared in ACES pH 7.4 containing 20 mM ACES, 150 mM NaCl, 0.05% Tween 20, 0.005% NaN₃. Each antibody was captured onto the sensor surface by anti-human Fc antibody. Antibody capture levels were aimed at 50 resonance unit (RU). Human IL-12 was injected at 5 and 20 nM, followed by dissociation. Sensor surface was regenerated each cycle with 3M MgCl₂.
# T2 sequence (Q99665 24-862, chain 2 of 2, other chains not shown): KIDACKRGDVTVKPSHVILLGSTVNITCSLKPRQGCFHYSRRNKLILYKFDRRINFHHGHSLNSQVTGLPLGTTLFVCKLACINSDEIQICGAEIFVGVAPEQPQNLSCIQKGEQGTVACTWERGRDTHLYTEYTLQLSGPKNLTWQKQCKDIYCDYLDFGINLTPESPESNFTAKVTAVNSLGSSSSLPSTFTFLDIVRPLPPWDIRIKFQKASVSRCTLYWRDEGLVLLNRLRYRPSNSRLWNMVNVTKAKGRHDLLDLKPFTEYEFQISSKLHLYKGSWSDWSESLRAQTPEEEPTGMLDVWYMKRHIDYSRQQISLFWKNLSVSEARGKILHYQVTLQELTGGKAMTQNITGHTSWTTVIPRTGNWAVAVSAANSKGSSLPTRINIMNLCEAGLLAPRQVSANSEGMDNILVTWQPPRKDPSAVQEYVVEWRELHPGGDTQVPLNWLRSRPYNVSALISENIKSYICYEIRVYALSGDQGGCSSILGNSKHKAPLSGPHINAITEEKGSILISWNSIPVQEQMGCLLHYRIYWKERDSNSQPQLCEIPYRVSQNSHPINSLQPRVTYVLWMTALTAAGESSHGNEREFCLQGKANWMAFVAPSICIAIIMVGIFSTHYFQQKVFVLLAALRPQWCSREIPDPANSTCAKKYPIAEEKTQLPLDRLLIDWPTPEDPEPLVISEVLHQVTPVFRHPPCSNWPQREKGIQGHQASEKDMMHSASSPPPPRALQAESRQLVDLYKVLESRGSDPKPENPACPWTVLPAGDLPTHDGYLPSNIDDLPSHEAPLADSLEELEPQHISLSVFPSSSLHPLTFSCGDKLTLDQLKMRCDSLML
binder,measurement,setting,value
hIL12_His tag (ligand) chain 1: IWELKKDVYVVELDWYPDAPGEMVVLTCDTPEEDGITWTLDQSSEVLGSGKTLTIQVKEFGDAGQYTCHKGGEVLSHSLLLLHKKEDGIWSTDILKDQKEPKNKTFLRCEAKNYSGRFTCWWLTTISTDLTFSVKSSRGSSDPQGVTCGAATLSAERVRGDNKEYEYSVECQEDSACPAAEESLPIEVMVDAVHKLKYENYTSSFFIRDIIKPDPPKNLQLKPLKNSRQVEVSWEYPDTWSTPHSYFSLTFCVQVQGKSKREKKDRVFTDKTSATVICRKNASISVRAQDRYYSSSWSEWASVPCS chain 2: RNLPVATPDPGMFPCLHHSQNLLRAVSNMLQKARQTLEFYPCTSEEIDHEDITKDKTSTVEACLPLELTKNESCLNSRETSFITNGSCLASRKTSFMMALCLSSIYEDLKMYQVEFKTMNAKLLMDPKRQIFLDQNMLAVIDELMQALNFNSETVPQKSSLEEPDFYKTKIKLCILLHAFRIRAVTIDRVMSYLNAS,"EC50 (read off the curve), IL-12 luciferase reporter assay (+ MTSP1)",[1],~200 pM
same,"EC50 (read off the curve), IL-12 luciferase reporter assay (without protease)",[1],~200 pM
same,"EC50 (read off the curve), IL-12 luciferase reporter assay (without protease) [left graph]",[2],~100 pM
same,"EC50 (read off the curve), IL-12 luciferase reporter assay (+ MTSP1) [all three graphs]",[3],~200 pM
same,"EC50 (read off the curve), IL-12 luciferase reporter assay (without protease) [all three graphs]",[3],~200 pM
"Anti-IL-12 antibody, Ab1, comprising VH release enhancing mutations (Ab101H89-12aa0054-C8/Ab102L69-SK1) (antibody, V domains shown, Homodimer of a light and a heavy chain; Mutations V37S, F100aI / L46Q, Y49A; also called Ab101H89/Ab102L69) VH: QVQLVQSGAEVKKPGSSVKVSCKASGGTFSDYYLHWSRQAPGQGLEWMGWIDPENGDTEYAPKFQGRVTITADESTSTAYMELSSLRSEDTAVYYCARNKELRYIDVWGQGTLVTVSS VL: DIVMTQSPLSLPVTPGEPASISCRASQSISINLHWYQQKPGQAPRQLIAFASQSISGVPSRFSGSGSGTDFTLTISSLQPEDFATYYCQQSNSFPLTFGQGTKVEIKR",Kd,Human IL-12,6520 pM
"Anti-IL-12 antibody Ab1, variable region variant Ab101H89/Ab102L994 (antibody, V domains shown, Mutations V37S, F100aI / L46Q, Y49A, N92Y) VH: QVQLVQSGAEVKKPGSSVKVSCKASGGTFSDYYLHWSRQAPGQGLEWMGWIDPENGDTEYAPKFQGRVTITADESTSTAYMELSSLRSEDTAVYYCARNKELRYIDVWGQGTLVTVSS VL: DIVMTQSPLSLPVTPGEPASISCRASQSISINLHWYQQKPGQAPRQLIAFASQSISGVPSRFSGSGSGTDFTLTISSLQPEDFATYYCQQSYSFPLTFGQGTKVEIKR",Kd,Human IL-12,3510 pM
"Anti-IL-12 antibody Ab1, variable region variant Ab101H725/Ab102L1087 (antibody, V domains shown, Mutations V37S, G55Q, N95T, F100aI / A25S, Q27D, L46Q, Y49A) VH: QVQLVQSGAEVKKPGSSVKVSCKASGGTFSDYYLHWSRQAPGQGLEWMGWIDPENQDTEYAPKFQGRVTITADESTSTAYMELSSLRSEDTAVYYCARTKELRYIDVWGQGTLVTVSS VL: DIVMTQSPLSLPVTPGEPASISCRSSDSISINLHWYQQKPGQAPRQLIAFASQSISGVPSRFSGSGSGTDFTLTISSLQPEDFATYYCQQSNSFPLTFGQGTKVEIKR",Kd,Human IL-12,1270 pM
"Anti-IL-12 antibody Ab1, variable region variant Ab101H/Ab102L (antibody, V domains shown) VH: QVQLVQSGAEVKKPGSSVKVSCKASGGTFSDYYLHWVRQAPGQGLEWMGWIDPENGDTEYAPKFQGRVTITADESTSTAYMELSSLRSEDTAVYYCARNKELRYFDVWGQGTLVTVSS VL: DIVMTQSPLSLPVTPGEPASISCRASQSISINLHWYQQKPGQAPRLLIYFASQSISGVPSRFSGSGSGTDFTLTISSLQPEDFATYYCQQSNSFPLTFGQGTKVEIKR",Kd,Human IL-12,1450 pM
same,kon,Human IL-12,1.9e+06 M⁻¹ s⁻¹
